According to patent US20140140998:

B1: recombinant glutathione-S-transferase-tagged TRAF6 (GST-TRAF6) fusion protein (protein)
chain: MSLLNCENSCGSSQSESDCCVAMASSCSAVTKDDSVGGTASTGNLSSSFMEEIQGYDVEFDPPLESKYECPICLMALREAVQTPCGHRFCKACIIKSIRDAGHKCPVDNEILLENQLFPDNFAKREILSLMVKCPNEGCLHKMELRHLEDHQAHCEFALMDCPQCQRPFQKFHINIHILKDCPRRQVSCDNCAASMAFEDKEIHDQNCPLANVICEYCNTILIREQMPNHYDLDCPTAPIPCTFSTFGCHEKMQRNHLARHLQENTQSHMRMLAQAVHSLSVIPDSGYISEVRNFQETIHQLEGRLVRQDHQIRELTAKMETQSMYVSELKRTIRTLEDKVAEIEAQQCNGIYIWKIGNFGMHLKCQEEEKPVVIHSPGFYTGKPGYKLCMRLHLQLPTAQRCANYISLFVHTMQGEYDSHLPWPFQGTIRLTILDQSEAPVRQNHEEIMDAKPELLAFQRPTIPRNPKGFGYVTFMHLEALRQRTFIKDDTLLVRCEVSTRFDMGSLRREGFQPRSTDAGV
B2: tumor necrosis factor receptor-associated factor 6 (TRAF6), endogenous (protein)
chain: MSLLNCENSCGSSQSESDCCVAMASSCSAVTKDDSVGGTASTGNLSSSFMEEIQGYDVEFDPPLESKYECPICLMALREAVQTPCGHRFCKACIIKSIRDAGHKCPVDNEILLENQLFPDNFAKREILSLMVKCPNEGCLHKMELRHLEDHQAHCEFALMDCPQCQRPFQKFHINIHILKDCPRRQVSCDNCAASMAFEDKEIHDQNCPLANVICEYCNTILIREQMPNHYDLDCPTAPIPCTFSTFGCHEKMQRNHLARHLQENTQSHMRMLAQAVHSLSVIPDSGYISEVRNFQETIHQLEGRLVRQDHQIRELTAKMETQSMYVSELKRTIRTLEDKVAEIEAQQCNGIYIWKIGNFGMHLKCQEEEKPVVIHSPGFYTGKPGYKLCMRLHLQLPTAQRCANYISLFVHTMQGEYDSHLPWPFQGTIRLTILDQSEAPVRQNHEEIMDAKPELLAFQRPTIPRNPKGFGYVTFMHLEALRQRTFIKDDTLLVRCEVSTRFDMGSLRREGFQPRSTDAGV

Key:
[1] = molecular target: T1, GST-TβRI intracellular domain fusion protein
T1 chain: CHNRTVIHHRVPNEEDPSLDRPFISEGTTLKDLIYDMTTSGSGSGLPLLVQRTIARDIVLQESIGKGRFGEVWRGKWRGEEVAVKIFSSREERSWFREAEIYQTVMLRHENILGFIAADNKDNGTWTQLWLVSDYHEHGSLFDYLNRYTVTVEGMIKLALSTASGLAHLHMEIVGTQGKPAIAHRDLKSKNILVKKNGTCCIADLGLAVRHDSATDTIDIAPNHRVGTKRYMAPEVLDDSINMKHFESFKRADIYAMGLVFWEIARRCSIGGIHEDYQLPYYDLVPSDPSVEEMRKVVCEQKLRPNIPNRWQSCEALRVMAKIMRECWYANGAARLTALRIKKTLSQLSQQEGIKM

[2] = molecular target: T2, type I receptor of transforming growth factor beta (TβRI), endogenous, full length
T2 chain: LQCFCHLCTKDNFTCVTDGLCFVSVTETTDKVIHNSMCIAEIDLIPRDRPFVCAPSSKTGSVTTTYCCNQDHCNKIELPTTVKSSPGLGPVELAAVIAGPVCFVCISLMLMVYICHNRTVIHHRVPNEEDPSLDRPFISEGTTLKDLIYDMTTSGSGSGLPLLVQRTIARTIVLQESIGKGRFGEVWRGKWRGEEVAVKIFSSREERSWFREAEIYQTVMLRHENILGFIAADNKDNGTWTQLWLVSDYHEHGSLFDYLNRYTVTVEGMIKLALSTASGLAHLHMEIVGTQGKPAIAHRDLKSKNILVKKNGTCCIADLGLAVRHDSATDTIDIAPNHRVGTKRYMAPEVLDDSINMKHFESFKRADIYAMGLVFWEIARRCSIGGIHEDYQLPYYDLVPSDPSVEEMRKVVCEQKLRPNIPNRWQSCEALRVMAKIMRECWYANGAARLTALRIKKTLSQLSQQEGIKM

Row | Protein | polyubiquitination of TβRI in an in vitro ubiquitination assay [1] | Lys63-linked polyubiquitination of TβRI and formation of the TβRI ICD after TRAF6 siRNA [2]
1 | B1 | TRAF6 was shown to induce the polyubiquitination of TβRI in an in vitro ubiquitination assay | –
2 | B2 | – | a knock-down of endogenous TRAF6 in PC-3U cells with an anti-TRAF6 siRNA also resulted in loss of both Lys63-linked polyubiquitination in TβRI and the formation of the TβRI ICD in response to TGFβ stimulation
